We go through one substance from article PMC4823841.

This assay addresses recombinant human renin (human) (UniProt P00797).
Chain of UniProt P00797 (P00797 67-406): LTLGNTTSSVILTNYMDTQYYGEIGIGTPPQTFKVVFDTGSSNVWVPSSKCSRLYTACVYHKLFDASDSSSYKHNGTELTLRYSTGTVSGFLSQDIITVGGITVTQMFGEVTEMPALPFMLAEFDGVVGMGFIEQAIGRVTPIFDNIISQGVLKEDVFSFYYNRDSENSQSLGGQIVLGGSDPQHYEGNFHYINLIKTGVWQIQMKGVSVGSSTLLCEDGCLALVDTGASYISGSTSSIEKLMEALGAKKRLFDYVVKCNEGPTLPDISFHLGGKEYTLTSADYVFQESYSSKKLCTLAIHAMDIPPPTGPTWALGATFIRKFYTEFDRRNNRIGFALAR

As to “recombinant ovine angiotensinogen expressed in CHO cells (natural protein)”, the Km (steady-state kinetics of human renin, 25 pM, with 0-0.4 μM oANG at 37 °C, pH 7.2; angiotensin I generated, measured by ELISA; Hanes-Woolf plot) was 0.072 μM.
